How the values were obtained:
[1] = system: chick embryonic spinal motorneurons; experiment: Survival of chick embryonic spinal motorneurons in culture; format: cell-based; parameters: key to Survival: −: not significantly different from control (survival: 8.3 ± 3.8%, mean ± SD, n = 18); ±: about 15-20% (statistically significant from each blank control, p < 0.01); + +: about 35-55%; + ++: about 55-75%; details: for Survival: after 3 days in culture, one concentration per molecule, Table VI, CNTF rat, rec.; for survival effect on motoneurons: supramaximal concentrations, NT-3 produced by transfected Cos-cells
Procedure: Motorneuron columns were dissected under a stereomicroscope from the lumbar part of the spinal cord of chick embryos on the 6th day of embryonic development and stored in cold calcium and magnesium-free Hanks balanced salt solution supplemented with glucose (4 g/l) (HBSS). The tissues were washed with HBSS and treated with 0.03% trypsin in HBSS at 37° C. for 20 min with gentle shaking, rinsed with cold HBSS and triturated mildly in 3 steps of 8-passage agitation in 1 ml of cold 0.1% soybean trypsin inhibitor (Sigma) in HBSS through a fire-polished siliconized Pasteur pipette. Each supernatant cell suspension was filtered through 50 μm-Nylon mesh, pooled and layered onto 4 ml of cold 6.8% metrizamide (Fluka) in HBSS-25 mM HEPES (pH7.4) in a 12 ml-siliconized conical glass tube. The tube was centrifuged at 400 g for 15 min at 4° C. and the intermediate layer (0.5 ml) was collected into another siliconized tube containing 6.5 ml of cold culture medium (a mixture of glucose (4 g/l)-supplemented Leibovitz's L-15 medium (Gibco), 0.15 M sodium bicarbonate, heat-inactivated and filtered horse serum and penicillin G (10^5 units/ml) at the ratio of 75:15:10:0.1, freshly prepared and buffered with 5% CO2.) After centrifugation at 100×g for 7 min at 4° C., the supernatant was removed and the cells were gently resuspended in culture medium and plated in Greiner 4-well culture dishes (well diameter, 10 mm; C. A. Greiner und Sohne GmbH, Nurtingen, West Germany) at 1000-2000 cells/well. The dishes had been precoated with poly-DL-ornithine (Sigma, 0.5 mg in 0.15 M sodium borate buffer (pH 8.3) overnight at 4° C., rinsed twice with phosphate-buffered saline (PBS) and subsequently coated with laminin (Gibco; 10 μg/ml in the serum-depleted culture medium) and placed in a 5% CO2-incubator until cell plating (5-6 hrs). Cells were incubated at 37° C. in a humidified 5% CO2- and 95% air-incubator. Samples were added one hr after plating and the culture medium changed after 24 hrs and 72 hrs. The initial cell numbers were counted 3 hrs after plating.
In some experiments motor neurons were retrogradely labeled with a fluorescent dye in vivo before cell preparation (U. Dohrman et al., 1986, Dev. Biol. 118:209-221) to identify the motor neuron cell population. A small hole was made in the shell of eggs which had been incubated for 5 days. Small pieces of rhodamine isothiocyanate crystals (Sigma) were inserted at two or three places into each hind limb thigh and the egg hole was sealed with a cellophane tape. The eggs were incubated for another 24 hrs. Some of the operated embryos were then processed for frozen sections after formaldehyde fixation. […] The other embryos were used for cell preparation using the method described above (18.1.1). After 5 hrs in culture cells were rinsed with warm HBSS, fixed with 4% formaldehyde in PBS at room temperature for 20 min, rinsed with PBS and then mounted in glycerol-PBS (1:1) with glass coverslips. Of the total cells approximately 83% were labeled and identified as motorneurons (FIG. 42.) Most of these labeled motorneurons were large cells and the rest were intermediate-size cells. No small cells were labeled. On the other hand, in experiments in which cells were not labeled with a fluorescent dye about 70% of the total cells were large phase-bright cells with round cell somas, about 20% were intermediate-size neurons (most of them may be motorneurons) and about 10% were small immature neurons (they have neuron-like processes with growth cones but have phase-dark semi-flat cell somas). Non-neuronal cells were either not present or accounted for less than 2%. Taken together, one may conclude that at least 83% of the cells are motorneurons while the remainder consists of non-labeled motorneurons, a small number of unidentified intermediate-size neurons and about 10% immature small neurons. […]

[2] = system: E8 chick ciliary ganglion neurons; experiment: Survival of dissociated E8 chick ciliary ganglion neurons; format: cell-based
Source text: Ciliary neurotrophic factor activity may be evaluated using any CNTF-sensitive in vivo or in vitro system known in the art. For example, and not by way of limitation, in vitro systems have been developed which measure CNTF activity by quantitating 24-hour survival of embryonic (E8) chick ciliary ganglion (CG) neurons in monolayer cultures.
For example, ciliary ganglia may be collected from E8 chick embryos, dissociated (yielding approximately 20,000 cells per ganglion) and then diluted in HEBM medium containing 20 percent horse serum as described in Varon et al. (1979, Brain Res. 173:29-45). About fifty microliters of cell suspension containing neurons (2,000 cells) may then be seeded into microliter dishes and putative CNTF activity may be added. Culture plates may then be maintained at 37° C. in 5% CO2 for 24 hours, after which the cultures may be fixed by the addition of 200 μl 2 per cent glutaraldehyde in HEBM medium, and the number of surviving neurons may be determined visually by direct count under phase contrast microscopy.
Chick embryo ciliary ganglion cultures were created and maintained according to the method set forth in (Hughes et al., 1988, Nature 335 : 70-73).
(§1) Biological activity of recombinant CNTF was assayed on explants of chick embryo dorsal root ganglia (DRG) and dissociated cultures of ciliary ganglion (CG) neurons as described in Lindsay and Rohrer (1985, Devel. Biol 112:30-48). Briefly, DRG were dissected from chick embryos of 10 days incubation (E10) and 5-6 ganglia were explanted in 1 ml of a collagen gel matrix in 35 mm tissue culture dishes. After the gel had set, 1 ml of tissue culture growth medium F14 (Imperial Labs., U.K.) supplemented with 5% heat-inactivated horse serum (GIBCO) was added before adding human CNTF (1-20 l) to a final concentration of 100 pg to 100 ng/ml. CG were dissected from E8 chick embryos and incubated for 30 min in 0.25% trypsin (Worthington) in calcium- and magnesium-free phosphate buffered saline. The ganglia were then washed three times in F14 medium containing 5% horse serum before being dissociated to a single cell suspension by trituration through the bore of a Pasteur pipette. Enrichment for CG neurons was achieved by plating the cell suspension for 3.5 hr in a 60 mm dish, during which non-neuronal cells (fibroblasts and Schwann cells) attached firmly to the plastic while phase-bright neurons remained in suspension. The purified neurons were plated on polyornithine-laminin-coated 35 mm culture dishes at 8,000-10,000 neurons/dish. In explant cultures CNTF activity was determined by assessing the extent of fiber outgrowth in treated cultures compared to controls. Fiber outgrowth was scored on a scale of 0 to 5+, by comparing cultures to photographs of a dose-response of explanted DRG and NGF. In dissociated CG neuron cultures, CNTF activity was determined by counting at 48 hr the percentage of process-bearing neurons in control and CNTF-treated cultures. In all cases results were derived from triplicate cultures.

[3] = system: dorsal root ganglia and/or dissociated ciliary neurons; experiment: Biological activity of modified and truncated CNTF proteins (rapid bacterial extracts); format: cell-based, chick; details: soluble protein extracted from induced bacteria hosting each plasmid; compared with full length parental protein
Procedure: Samples for gel electrophoresis were prepared by resuspending cell pellets from 0.5 ml culture OD590=2 in 0.16 ml lysis buffer (100 mM TrisHCl, 10% glycerol, 4% sodium dodecyl sulfate, 1 mM dithiothreitol, 0.5 mg/ml bromophenol blue, pH 6.8) and boiling for 5 minutes.
as §1
Biological activity was assayed on dorsal root ganglia and/or dissociated ciliary neurons was determined as described in section 12.1.6. Soluble protein was extracted from induced bacteria hosting each plasmid by the “rapid” protein extraction method described in section 12.1.3.

Row | Molecule | Survival [1] | survival effect on motoneurons [1] | lowest concentration at which activity was detectable ([2]; dissociated, neuron-enriched E8 chick ciliary ganglion cultures) | EC50 ([2]; neuronal survival, E8 chick ciliary ganglion cultures) | biological activity [3]
1 | bNGF: bNGF (mouse) (protein, UniProt P01139 122-241, looked up, Beta-nerve growth factor) Beta-nerve growth factor: SSTHPVFHMGEFSVCDSVSVWVGDKTTATDIKGKEVTVLAEVNINNSVFRQYFFETKCRASNPVESGCRGIDSKHWNSYCTTTHTFVKALTTDEKQAAWRFIRIDTACVCVLSRKATRRG | − | no discernable effect |  |  | 
2 | NT-3: neurotrophic molecule of the NGF-BDNF gene family, produced by transfected Cos-cells (protein, UniProt P20783 139-257, looked up) Neurotrophin-3: YAEHKSHRGEYSVCDSESLWVTDKSSAIDIRGHQVTVLGEIKTGNSPVKQYFYETRCKEARPVKNGCRGIDDKHWNSQCKTSQTYVRALTSENNKLVGWRWIRIDTSCVCALSRKIGRT | − | did not appear to have a survival effect |  |  | 
3 | IFNc: IFNc (rat, rec.) (protein, UniProt P01581 23-156, looked up) Interferon gamma: QGTLIESLESLKNYFNSSSMDAMEGKSLLLDIWRNWQKDGNTKILESQIISFYLRLFEVLKDNQAISNNISVIESHLITNFFSNSKAKKDAFMSIAKFEVNNPQIQHKAVNELIRVIHQLSPESSLRKRKRSRC | − | no discernable effect |  |  | 
4 | CNTF purified from rat sciatic nerve: native CNTF protein purified from rat sciatic nerve (protein, UniProt P20294 1-200, looked up) Ciliary neurotrophic factor: MAFAEQTPLTLHRRDLCSRSIWLARKIRSDLTALMESYVKHQGLNKNINLDSVDGVPVASTDRWSEMTEAERLQENLQAYRTFQGMLTKLLEDQRVHFTPTEGDFHQAIHTLMLQVSAFAYQLEELMVLLEQKIPENEADGMPATVGDGGLFEKKLWGLKVLQELSQWTVRSIHDLRVISSHQMGISALESHYGAKDKQM |  |  | 5 pg/mL | 80 pg/mL | 
5 | EGF: EGF (mouse) (protein, UniProt P01132 29-1217, looked up, Pro-epidermal growth factor) Pro-epidermal growth factor: WQTGNCQPGPLERSERSGTCAGPAPFLVFSQGKSISRIDPDGTNHQQLVVDAGISADMDIHYKKERLYWVDVERQVLLRVFLNGTGLEKVCNVERKVSGLAIDWIDDEVLWVDQQNGVITVTDMTGKNSRVLLSSLKHPSNIAVDPIERLMFWSSEVTGSLHRAHLKGVDVKTLLETGGISVLTLDVLDKRLFWVQDSGEGSHAYIHSCDYEGGSVRLIRHQARHSLSSMAFFGDRIFYSVLKSKAIWIANKHTGKDTVRINLHPSFVTPGKLMVVHPRAQPRTEDAAKDPDPELLKQRGRPCRFGLCERDPKSHSSACAEGYTLSRDRKYCEDVNECATQNHGCTLGCENTPGSYHCTCPTGFVLLPDGKQCHELVSCPGNVSKCSHGCVLTSDGPRCICPAGSVLGRDGKTCTGCSSPDNGGCSQICLPLRPGSWECDCFPGYDLQSDRKSCAASGPQPLLLFANSQDIRHMHFDGTDYKVLLSRQMGMVFALDYDPVESKIYFAQTALKWIERANMDGSQRERLITEGVDTLEGLALDWIGRRIYWTDSGKSVVGGSDLSGKHHRIIIQERISRPRGIAVHPRARRLFWTDVGMSPRIESASLQGSDRVLIASSNLLEPSGITIDYLTDTLYWCDTKRSVIEMANLDGSKRRRLIQNDVGHPFSLAVFEDHLWVSDWAIPSVIRVNKRTGQNRVRLQGSMLKPSSLVVVHPLAKPGADPCLYRNGGCEHICQESLGTARCLCREGFVKAWDGKMCLPQDYPILSGENADLSKEVTSLSNSTQAEVPDDDGTESSTLVAEIMVSGMNYEDDCGPGGCGSHARCVSDGETAECQCLKGFARDGNLCSDIDECVLARSDCPSTSSRCINTEGGYVCRCSEGYEGDGISCFDIDECQRGAHNCGENAACTNTEGGYNCTCAGRPSSPGLSCPDSTAPSLLGEDGHHLDRNSYPGCPSSYDGYCLNGGVCMHIESLDSYTCNCVIGYSGDRCQTRDLRWWELRHAGYGQKHDIMVVAVCMVALVLLLVLGMWGTYYYRTRKQLSNPPKNPCDEPSGSVSSSGPNSSSGAAVASCPQPWFVVLEKHQDPKNGSLPADGTNGAVVDAGLSPSLQLGSVHLTSWRQKPHIDGMGTGQSCWIPPSSDRGPQEIEGNSHLPSYRPVGPEKLHSLQSANGSCHERAPDLPRQTEPVQ | − | no discernable effect |  |  | 
6 | IL-6: IL-6 (mouse, rec.) (protein, UniProt P08505 25-211, looked up) Interleukin-6: FPTSQVRRGDFTEDTTPNRPVYTTSQVGGLITHVLWEIVEMRKELCNGNSDCMNNDDALAENNLKLPEIQRNDGCYQTGYNQEICLLKISSGLLEYHSYLEYMKNNLKDNKKDKARVLQRDTETLIHIFNQEVKDLHKIVLPTPISNALLTDKLESQKEWLRTKTIQFILKSLEEFLKVTLRSTRQT | − | no discernable effect |  |  | 
7 | pRPN108: hCNTF with alanine in place of cysteine at amino acid 17, encoded in plasmid pRPN108 (protein, UniProt P26441 1-200, looked up, variant C17A) Ciliary neurotrophic factor: MAFTEHSPLTPHRRDLASRSIWLARKIRSDLTALTESYVKHQGLNKNINLDSADGMPVASTDQWSELTEAERLQENLQAYRTFHVLLARLLEDQQVHFTPTEGDFHQAIHTLLLQVAAFAYQIEELMILLEYKIPRNEADGMPINVGDGGLFEKKLWGLKVLQELSQWTVRSIHDLRFISSHQTGIPARGSHYIANNKKM |  |  |  |  | as active as the full length protein

Reference: patent US6602687B1, “DNA encoding human ciliary neurotrophic factor and method for producing the protein encoded thereby” (Regeneron Pharmaceuticals, Inc., priority 1989, dated 2003)
